{"source": "the nanobody polyreactivity screen of Harvey et al. (2022)", "data": [{"experiment": "yeast display, Sf9 membrane polyspecificity reagent, FACS + sequencing; frameworks hold sequencing errors", "outline": "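A nanobody's polyreactivity label depends on the gate it was sorted from. Yeast display cells were stained with 10% biotinylated, detergent-solubilized Sf9 membrane reagent for 1 hour at 4 °C, enriched on streptavidin microbeads and sorted by FACS. The low and high (top ~1%) gates were set on anti-HA fluorescence for expression and streptavidin fluorescence for reagent binding.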", "values": [{"sequence": "QVQLVESGGGLVQAGGSHRLSCAASGRTFVFYAMGWYRPAPGKERELVAAISRSGGSTYYADSVKGRFTISRDNAKNTVFLQMNSLKPEDTAVSYCNARYTGSGGYWGQGTQVTVSS", "polyreactivity (PSR sort gate)": "high polyreactivity"}, {"sequence": "QVQLVESGGGLVQAGGTLRFSCAASGLTIDRYAMGWYRQAPGKERELVAAISFTGDRTYYADSVKGRFTISRDNAKNTVYLQMNSLKPEDTAVYYCAVRRYGYRKYDSWGQGTQVTVSS", "polyreactivity (PSR sort gate)": "high polyreactivity"}, {"sequence": "QVQLVESGGGLVQAGGSLRLSCAASGLTFWPYVMGWYRQAPGKERELVAAIDDTGITYYADSVKGRFTISRDNEKNTVYLQMNTLKPEDTAVYYCATDWDYYFPWIYPSDAGPEDGYCGQGTQVTVSS", "polyreactivity (PSR sort gate)": "low polyreactivity"}, {"sequence": "QVQLVESGGGLVQAGGSLRLSCAASGSSFPGYAMGWYRKAPGKERELVATSTYSDGSTYYADSVKGRFTISRDNAKNTVYLQMNSLKPEDTAVYYCAVTYWWYYGYDYWGQGTQVTVSS", "polyreactivity (PSR sort gate)": "low polyreactivity"}, {"sequence": "QVQLVESGGGLVQAGGSLRLSCAASGSIFYDNAMGWYRQAPGKERELVAAIRGRGGSTYYADSVKGRFTISRDNAKNTVYLQMNSLKPEDTAVYYCNALNYRYRKYDYWGQGTQVTVSS", "polyreactivity (PSR sort gate)": "high polyreactivity"}, {"sequence": "QVQLVESGGGLVQAGGSLRLSCAASGFIFPQYAKGWYRQAPGKERELVAAISTGGGSTYYADSVKGRFTISRDNAKNTVYLQMNSLKPEDTAVYYCNARPKYDSGHYYWGQGTQVTVSS", "polyreactivity (PSR sort gate)": "high polyreactivity"}, {"sequence": "QVQLVESGGGLVQAGGSLRLSCAASGSIFRKNAMGWYRPAPGKERELVATISGGGSTTYADSVKGRFTISRDNAKNTVYVHMNSLKPEDTAVYYCAARSTWFQLRYGYGGQGTQVTVSS", "polyreactivity (PSR sort gate)": "high polyreactivity"}, {"sequence": "QVQLVESGVGLVQAGGSLRLSCASSGRIFDLNSMGWYIQAPGKERELVAVIDRDGSTYYADSVKGRFTISRDNAKNTVYLQMNSLKPDDTAVYYCNKYWYSRHVRYWAYYAEQRYDYCGQGTQVTVSS", "polyreactivity (PSR sort gate)": "low polyreactivity"}, {"sequence": "QVQLVESGGGLVQAGGSLRLSCDASGIIFKKYAMGWNRQAPGKERELVAVITRGGSTNYADSVKGRFTISRDNAKNTVYLQMNSLKPEDTAVYYCNADSGSYHGWYGGDYGGQGTQVTVSS", "polyreactivity (PSR sort gate)": "low polyreactivity"}, {"sequence": "QVQLVESGGGLVQAGGSLRLSCAASGSIFSFYAVGWYRQAPGKERELVAALSSGGSTYYADSVKGRFTISGDNAKNTVYLQMNSLIPEDTAVYYCAADPYRYNFRAYGWYREGYYWGQGTQVTVSS", "polyreactivity (PSR sort gate)": "low polyreactivity"}, {"sequence": "QVQLVESGGGLVQAGGSLRLSCAASGRTFVRYAMGRYRQAPGKERELVAAISGDGASTYYADSVKGRFTISRDNAKNTVYLQMNSLKPEDPAVYYCNARSIRRYYYPDYDYWGQGTQVTVSS", "polyreactivity (PSR sort gate)": "high polyreactivity"}, {"sequence": "QVQLVESGGGLVQAGGSLRLSCAASGSTLAIYAMGCYRQAPGKERELVASISRVGSTNYADSVKGRFTISRDNAKNTVYLQMNSRIPEDTAVYYCAARRWSYVILRAYYYWGQGTQETVSS", "polyreactivity (PSR sort gate)": "high polyreactivity"}, {"sequence": "QDQHVESGGGLVQAGGSLRLSCAASGSTFRKYAMGRSRQAPGKERELVAAISWSGGRTYYADSVKGRFTISRDNAKKTFYLQLNSLKPEDTAVYYCAASIPGTRSDGYWGQGTQVTVSS", "polyreactivity (PSR sort gate)": "high polyreactivity"}, {"sequence": "QVQLVESGGGLVQAGGSLRLSCAASGSIFNRYTMGWYRQAPGKERELVAAISKRGGSTYYADSVKGRFTISRDNAKNTVYLQMNSLKPEDTAVYYCAAAAYHSGKGGGYWGQGTQVTVSS", "polyreactivity (PSR sort gate)": "high polyreactivity"}, {"sequence": "QVQLVESGGGLVQAGGSLRLSCAASGFIFGYNAMGWYRQAPGKERELVAAIDWSGTSTYYADSVKGRFTISRDNAKNTVYLQMNSLKPEDTAVYYCAADTSTWAHTRGYDYWGQGTQVTVSS", "polyreactivity (PSR sort gate)": "high polyreactivity"}, {"sequence": "QVQLEESGGGLVQAGGSLRLSCAASGSIFSYNAMGWYRQAPGKERELVAAISRGSGSTYYADSVKGRFTISRDNAKNTVYLQMNSLKPEDTAVYYCATRSIRVLPDVYRKADDYWGQGTQVTVSS", "polyreactivity (PSR sort gate)": "low polyreactivity"}, {"sequence": "QVQLVESGGGLVQAGGSLRLSCAASGRIFSQYAMGWYRQAPGKERELVAAISRRTGSTYYADSVKVRFTISRDNAKNTVYLQMNSLKPDDTAVYFCNKARLGWSYRQDDYWGQGTQVTVSS", "polyreactivity (PSR sort gate)": "high polyreactivity"}]}]}
